Assay results from US20160257710A1, “SELECTIVE INHIBITORS OF PROTEINASE 3” (INSERM (INSTITUT NATIONAL DE LA SANTÉ ET LA RECHERCHE …, priority 2013, published 2016).
Substitutions are numbered along the chain they refer to. Where no end group is shown, it is not given here. [ ]: non-standard residue; d: D form. AlaP = not defined here

Tests used:
Elastase = molecular target: T1, Elastase (Homo sapiens, UniProt P08246); assay: Protease inhibition assay, second order rate constant kobs/[I] (method of Tian and Tsou); type: biochemical; conditions: n.s where no significant inhibition
T1 sequence (P08246 30-267): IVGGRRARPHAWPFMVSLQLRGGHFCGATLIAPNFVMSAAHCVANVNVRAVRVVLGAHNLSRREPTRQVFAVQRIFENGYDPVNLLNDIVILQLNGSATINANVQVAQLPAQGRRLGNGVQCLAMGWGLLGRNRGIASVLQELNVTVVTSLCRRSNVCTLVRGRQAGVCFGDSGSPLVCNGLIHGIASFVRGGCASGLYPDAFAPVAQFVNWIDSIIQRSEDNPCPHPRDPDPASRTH
Description: The inactivation of proteases by substrate analog inhibitors in the presence of the substrate by competition for the enzyme-binding site, was measured by the method of Tian and Tsou (17). In this system, product formation in the presence of an irreversible inhibitor approaches an asymptote, as described by
log([P∞]−[P])=log [P∞]−0.43A[Y]t
where [P∞] is the concentration of product formed at time approaching infinity, [P] is the concentration of product at time t, [Y] is the inhibitor concentration, and A is the apparent inhibition rate constant in the presence of the substrate. A is given by
where k+0 is the rate constant for association of the inhibitor with the enzyme, K^−1 is the inverted Michaelis constant, and [S] the substrate concentration. The apparent inhibition rate constant A is the slope of a plot of log([P∞]−[P]) against t, to give the second-order rate constant of inhibition k+0

PR3I217R = molecular target: T2, PR3I217R (Homo sapiens, UniProt P24158, I221R); assay: Residual activity of recombinant PR3 mutant in presence of increasing amounts of compound; type: biochemical
T2 construct: made in house; host or cells: Drosophila S2 cells
T2 sequence (P24158 28-248 I221R limits assumed): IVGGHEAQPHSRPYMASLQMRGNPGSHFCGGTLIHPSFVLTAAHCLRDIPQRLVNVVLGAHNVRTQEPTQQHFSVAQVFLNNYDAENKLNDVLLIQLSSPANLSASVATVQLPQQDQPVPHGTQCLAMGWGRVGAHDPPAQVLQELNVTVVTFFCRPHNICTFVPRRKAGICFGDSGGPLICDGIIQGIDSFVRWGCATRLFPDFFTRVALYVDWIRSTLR
Description: (§1) Recombinant PR3K99L and […] were produced in Drosophila S2 cells using the calcium phosphate method, and stable cell lines were selected using puromycin. Proteins were purified by affinity chromatography on Chelating Sepharose and analyzed by SDS-PAGE. The total protein concentration was determined with a BCA Protein Assay
(§2) Phosphonate inhibitors and their biotinylated and fluorescent derivatives were synthesized, purified and controlled by mass spectrometry as reported. Their purity was checked by HPLC (data not shown). Purified Ac-Asp-Tyr-Asp-Ala^P(O—C6H4-4-Cl)2 (compound 1) and Ac-Pro-Tyr-Asp-Ala^P(O—C6H4-4-Cl)2 (compound 2) were first assayed for their inhibitory properties by measuring the residual activity of the human neutrophil serine proteases PR3, HNE and CatG in the presence of increasing amounts of each compound. We used for this purpose the FRET substrates that we developed previously for each protease (18). An almost complete inhibition of PR3 (1 nM final) was obtained after a 30 min incubation time with 20 μM of compound 1 (FIG. 1) and 0.3 μM of compound 2 (FIG. 2). Recombinant PR3K99L, […], HNE and CatG were used in the same experimental conditions. […] This emphasizes the importance of the S2 and S4 subsites to discriminate between PR3 and HNE specificities. Significant inhibition of HNE was obtained using about 100 times more Ac-Pro-Tyr-Asp-Ala^P(O—C6H4-4-Cl)2 than required to inhibit PR3. […] We confirmed this observation kinetically by measuring the second order rate constants kobs/l by competition experiments between the PR3 substrate and each inhibitor (17). As expected the second order rate constant kobs/l for compound 2 was about 100 times greater than that for compound 1 (see Table 1).

PR3K99L = molecular target: T3, PR3K99L (Homo sapiens, UniProt P24158, K115L); assay: as above; type: biochemical; conditions: Lys99 replaced by Leu in S2 subsite
T3 construct: made in house; host or cells: Drosophila S2 cells
T3 sequence (P24158 28-248 K115L limits assumed): T2 sequence (P24158 28-248 I221R limits assumed) with K88L, R194I
Description: as §1, §2

PR3 [1] = molecular target: T4, PR3 (Homo sapiens, UniProt P24158); assay: Inhibition of PR3 in a lysate of purified human neutrophils; type: biochemical; conditions: conditions as with purified proteases
T4 construct: in a lysate of purified human neutrophils; endogenous in cells; host or cells: purified human neutrophils (lysate)
T4 sequence (P24158 28-248): T2 sequence (P24158 28-248 I221R limits assumed) with R194I
Description: (§3) We first studied the stability and the selectivity of compound 1, 2 and their biotinylated derivatives in a lysate of purified human neutrophils. […] Further, PR3 was selectively inactivated in the neutrophil lysate as shown by western blotting using biotinylated inhibitors.

[2] = Stability of inhibitors in neutrophil lysate (preincubation before adding substrates); type: in vitro ADME, human; conditions: one hour preincubation of neutrophil lysate-inhibitor mixture
Description: as §3

PR3 [3] = molecular target: T4, PR3; assay: Inhibition of protease activity in crude lung secretions of patients (IPF, cystic fibrosis); type: biochemical; conditions: 30 min incubation, IPF and CF samples
Description: Crude lung secretions of patients with chronic inflammatory disorders associating significant neutrophil recruitment (IPF, Cystic fibrosis) were used as biological material to assay the efficacy of phosphonate inhibitors. We first measured the rate of cleavage of the PR3 substrate in >3 IPF and >3 CF crude samples before and after incubation with compounds 2 and 4 (×μM final). All crude samples cleaved the PR3 substrate in the absence of inhibitor and the cleavage always occurred at the expected bond, i.e. the cleavage bond of PR3, as checked by HPLC. The PR3 concentration was in the 0.1-1 μM range in lung secretions, based on the rate of substrate hydrolysis. […] Further, the rate of PR3 inactivation in a crude biological sample […] that of purified PR3, which means that there is no adverse effect impairing the PR3 inhibition in lung secretions of patients with inflammatory disorders.

Ac-Pro-Tyr-Asp-Ala^P(O—C6H4-4-Cl)2 (Ac-PYD[AlaP]; not fully specified (C-terminus); printed as Ac-Pro-Tyr-Asp-Ala^P(O—C6H4-4-Cl)2; reading uncertain; also: C-terminal Ala as phosphonate analogue (Ala^P)) [Compound 2]
Elastase kobs/[I] (Elastase): n.s | inhibition of the Ile217 to Arg217 PR3 mutant compared with PR3K99L (PR3I217R): more efficient toward this mutant | sensitivity of PR3K99L to inhibition compared with wt PR3 (PR3K99L): far less sensitive to inhibition | PR3 activity in neutrophil lysate (PR3 [1]): totally inactivated | inhibition potential after preincubation in neutrophil lysate [2]: No loss of the inhibition potential | hydrolysis of PR3 substrate in crude lung secretions (PR3 [3]): total inhibition
